We go through 38 variants from the RNAGym collection of RNA variant scans (doi:10.7554/elife.80360).

Sequences and labels used below:
B1: Hairpin Ribozyme (parent)
chain: GUCCUCUUUCACGUGCGCGUGAAAGAGAGAAGUGAACCAGAGAAACACACGUUGUGGUAUAUUACCUGGUA

In the data set the parent is B1. Briefly: self-cleavage, relative activity (ratio to wild type); higher = more cleavage; co-transcriptional.
Consider GUCCUCUUUCACGUGCGCGUGAAAGAGAGAAGUGAACCAGAGAAACACACGUUGGGGUAUACUACCUGGUA [U55G U62C], for which the self-cleavage stood at 0.161. For GUCCUCUUUCACGUGCGCGUGAAAGAGAGAAGUGAACCAGAGAAACACACGUUGGGGUAUAAUACCUGGUA [U55G U62A], the self-cleavage stood at 0.104. With GUCCUCUUUCACGUGCGCGUGAAAGAGAGAAGUGAACCAGAGAAACACACGUUGAGGUAUAUUACUUGGUA [U55A C66U], the self-cleavage is 0.258. Take GUCCUCUUUCACGUGCGCGUGAAAGAGAGAAGUGAACCAGAGAAACACACGUUGAGGUAUAUUACGUGGUA [U55A C66G]: the self-cleavage worked out at 0.24. Consider GUCCUCUUUCACGUGCGCGUGAAAGAGAGAAGUGAACCAGAGAAACACACGUUUUGGUAUAUUACCUGGGA [G54U U70G], for which the self-cleavage amounted to 0.43. Take GUCCUCUUUCACGUGCGCGUGAAAGAGAGAAGUGAACCAGAGAAACACACGUUUUGGUAUAUUACCUGGCA [G54U U70C]: the self-cleavage turned out to be 0.569. Turning to GUCCUCUUUCACGUGCGCGUGAAAGAGAGAAGUGAACCAGAGAAACACACGUUUUGGUAUAUUUCCUGGUA [G54U A64U], the self-cleavage amounted to 0.114. The value for GUCCUCUUUCACGUGCGCGUGAAAGAGAGAAGUGAACCAGAGAAACACACGUUGGGGUAUCUUACCUGGUA [U55G A61C] was 0.21; that for GUCCUCUUUCACGUGCGCGUGAAAGAGAGAAGUGAACCAGAGAAACACACGUUGGGGUAUUUUACCUGGUA [U55G A61U] was 0.0838. GUCCUCUUUCACGUGCGCGUGAAAGAGAGAAGUGAACCAGAGAAACACACGUUUUGGUAUAUUACCUGGUU [G54U A71U]: the self-cleavage turned out to be 0.333. The same measure for GUCCUCUUUCACGUGCGCGUGAAAGAGAGAAGUGAACCAGAGAAACACACGUUUUGGUAUAUUACCUGGUG [G54U A71G]: 0.552. Regarding GUCCUCUUUCACGUGCGCGUGAAAGAGAGAAGUGAACCAGAGAAACACACGUUGGGGUAUAUUACAUGGUA [U55G C66A], the self-cleavage turned out to be 0.201. The same measure for GUCCUCUUUCACGUGCGCGUGAAAGAGAGAAGUGAACCAGAGAAACACACGUUGGGGUAUAUUACCUCGUA [U55G G68C]: 0.251; for GUCCUCUUUCACGUGCGCGUGAAAGAGAGAAGUGAACCAGAGAAACACACGUUGGGGUAUAUUACCUAGUA [U55G G68A]: 0.237.

GUCCUCUUUCACGUGCGCGUGAAAGAGAGAAGUGAACCAGAGAAACACACGUUCUGGUAUAUUACCUUGUA [G54C G68U]: the self-cleavage was determined as 0.158.

As to GUCCUCUUUCACGUGCGCGUGAAAGAGAGAAGUGAACCAGAGAAACACACGUUCUGGUAUAUUACCUCGUA [G54C G68C], the self-cleavage was 0.221. The value for GUCCUCUUUCACGUGCGCGUGAAAGAGAGAAGUGAACCAGAGAAACACACGUUGCGUUAUAUUACCUGGUA [U55C G57U] was 0.299; that for GUCCUCUUUCACGUGCGCGUGAAAGAGAGAAGUGAACCAGAGAAACACACGUUGAGGUUUAUUACCUGGUA [U55A A59U] was 0.205. The same measure for GUCCUCUUUCACGUGCGCGUGAAAGAGAGAAGUGAACCAGAGAAACACACGUUGAGGUACAUUACCUGGUA [U55A U60C]: 0.712; for GUCCUCUUUCACGUGCGCGUGAAAGAGAGAAGUGAACCAGAGAAACACACGUUGAGGUAUAUUAACUGGUA [U55A C65A]: 0.204. The value for GUCCUCUUUCACGUGCGCGUGAAAGAGAGAAGUGAACCAGAGAAACACACGUUCUGGGAUAUUACCUGGUA [G54C U58G] was 0.272; that for GUCCUCUUUCACGUGCGCGUGAAAGAGAGAAGUGAACCAGAGAAACACACGUUCUGGCAUAUUACCUGGUA [G54C U58C] was 0.478; that for GUCCUCUUUCACGUGCGCGUGAAAGAGAGAAGUGAACCAGAGAAACACACGUUCUGGAAUAUUACCUGGUA [G54C U58A] was 0.334. On to GUCCUCUUUCACGUGCGCGUGAAAGAGAGAAGUGAACCAGAGAAACACACGUUGCGGUAUAUUUCCUGGUA [U55C A64U], for which the self-cleavage turned out to be 0.154. On to GUCCUCUUUCACGUGCGCGUGAAAGAGAGAAGUGAACCAGAGAAACACACGUUGCGGUAUAUUAUCUGGUA [U55C C65U], for which the self-cleavage worked out at 0.27. Regarding GUCCUCUUUCACGUGCGCGUGAAAGAGAGAAGUGAACCAGAGAAACACACGUUUUGGUAUCUUACCUGGUA [G54U A61C], the self-cleavage came out at 0.152. The same measure for GUCCUCUUUCACGUGCGCGUGAAAGAGAGAAGUGAACCAGAGAAACACACGUUGGGGUAUAUUACCUGAUA [U55G G69A]: 0.178. On to GUCCUCUUUCACGUGCGCGUGAAAGAGAGAAGUGAACCAGAGAAACACACGUUCCGGUAUAUUACCUGGUA [G54C U55C], for which the self-cleavage stood at 0.245. As to GUCCUCUUUCACGUGCGCGUGAAAGAGAGAAGUGAACCAGAGAAACACACGUUCUGGUAUAUUACCUGCUA [G54C G69C], the self-cleavage was determined as 0.0871.

On to GUCCUCUUUCACGUGCGCGUGAAAGAGAGAAGUGAACCAGAGAAACACACGUUGGGGUAUAUUAACUGGUA [U55G C65A], for which the self-cleavage is 0.3. The same measure for GUCCUCUUUCACGUGCGCGUGAAAGAGAGAAGUGAACCAGAGAAACACACGUUCUGGUAUAGUACCUGGUA [G54C U62G]: 0.141; for GUCCUCUUUCACGUGCGCGUGAAAGAGAGAAGUGAACCAGAGAAACACACGUUUUGCUAUAUUACCUGGUA [G54U G57C]: 0.177; for GUCCUCUUUCACGUGCGCGUGAAAGAGAGAAGUGAACCAGAGAAACACACGUUUUGUUAUAUUACCUGGUA [G54U G57U]: 0.282.

Regarding GUCCUCUUUCACGUGCGCGUGAAAGAGAGAAGUGAACCAGAGAAACACACGUUUUGAUAUAUUACCUGGUA [G54U G57A], the self-cleavage is 0.164. The value for GUCCUCUUUCACGUGCGCGUGAAAGAGAGAAGUGAACCAGAGAAACACACGUUGCGGUAUAUUACUUGGUA [U55C C66U] was 0.157. The value for GUCCUCUUUCACGUGCGCGUGAAAGAGAGAAGUGAACCAGAGAAACACACGUUGGGGGAUAUUACCUGGUA [U55G U58G] was 0.206; that for GUCCUCUUUCACGUGCGCGUGAAAGAGAGAAGUGAACCAGAGAAACACACGUUGAGGUAUAUAACCUGGUA [U55A U63A] was 0.0786.

For the variant GUCCUCUUUCACGUGCGCGUGAAAGAGAGAAGUGAACCAGAGAAACACACGUUGAGGUAUAUCACCUGGUA [U55A U63C], the self-cleavage was found to be 0.106.
